These results are taken from the supplement of paper PMC12042874.

± gives the uncertainty stated by the source.

A short description of this data set: amyloid nucleation score (Sup35N fusion, yeast selection) (log enrichment); library NNK3; higher = more nucleation; inactive = no reads after selection. The procedure, abridged: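 Nucleation score: DiMSum log enrichment of output over input reads, centred on the mode score of non-aggregating sequences. Only sequences with at least 100 input reads were kept. Reads came from Illumina sequencing of plasmid inserts before and after 7 days of growth at 30°C without adenine and uracil, in psi-negative yeast expressing Sup35N fused to peptides of 20 random codons after 24 hours of induction with 100 μM copper sulfate.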
On to CFKFWWGIRENFKFLGDVMR, for which the amyloid nucleation score entry is “inactive”.

Regarding VAFMIHYMKLPKYSHPWVHN, the amyloid nucleation score worked out at 0.041 ± 0.59.

With MIFSTYNNLLWLKSLQSTGG, the amyloid nucleation score result is “inactive”. To YVEHAYIRWRSVCKSIFLFS belongs “inactive”. To NVNILFDNLIRDWFVSMWED belongs “inactive”; to LYCTWNSYNSVYAI, 0.66 ± 0.2; to GWFSYSRMSNCSLNSTK, “inactive”.

Take AYNGK: the amyloid nucleation score entry was “inactive”.

As for MCDCL, the amyloid nucleation score result was “inactive”.

Regarding MGRLKCTVKPVSYEMWKVYA, the amyloid nucleation score entry was “inactive”. For the substance GSDLSWGRYKNSRFSSSMSA, the amyloid nucleation score entry is “inactive”. To HSDVWSVRSGAYLLLYIQTM belongs “inactive”; to LTGVLLMMVLYSRPHLTKAR, “inactive”; to FLIKNMY, “inactive”. For the substance HDYYLLLLTATL, the amyloid nucleation score entry is “inactive”. As for GKSRFRLRDAWWRLVTQQRR, the amyloid nucleation score result is “inactive”. To KKMLEKKI belongs “inactive”; to PRCARYYSKLFFCFSDLFLS, 0.233 ± 0.25; to IFVVYFGISTIRNT, 1.32 ± 0.097. To YCMGYSMHIV belongs “inactive”; to SSIVENGCNTERSPMIGCVS, -0.576 ± 0.88; to CSLQNVTVGLLHSQVVSRWE, “inactive”. To QCRSLITRWGDSVYCLWTK belongs “inactive”; to CSWVGAMFVQWNLPAPTEGI, 0.341 ± 0.37.

Take DWRQVYAYENSLWTVFSVWD: the amyloid nucleation score result was “inactive”. To CSPGTSCFGIKPRSSLSTTI belongs “inactive”; to RAYTDV, “inactive”. To FILSVWLYTS belongs “inactive”.

In turn, LNSKIKLNYYLIF returned an amyloid nucleation score of 0.108 ± 0.19. In turn, GFCLQSNLCIIGRSFWTFLI came in with an amyloid nucleation score of 0.629 ± 0.55. To SRMSGVVGIAKV belongs “inactive”; to FWLLVFPGNMMSS, 0.818 ± 0.14; to SLAYCLLEWMES, -0.172 ± 0.48. To FSILAFMSDLLS belongs “inactive”; to SYYISMVYTVMSMNASFSRS, “inactive”; to MHIFVLNLDLSRA, 2.61 ± 0.069. To HPSQIKKVAFHYVRICSKWL belongs “inactive”. For the substance GVRLNVDRAVKVARELFH, the amyloid nucleation score entry is “inactive”.

As to LNGSCKCLKELFVCYRSWVN, the amyloid nucleation score was -0.79 ± 0.93.

For FWHNSG, the amyloid nucleation score entry is “inactive”. For WSAECLFLVWRIHSML, the amyloid nucleation score result was “inactive”. Consider KNNGTSKGVCRLQIMLFGLA, for which the amyloid nucleation score result is “inactive”. To YQLFRFWDVRDSNHSKKIMQ belongs “inactive”. For TDYMLVWSQYRLIHFCNLVV, the amyloid nucleation score result was “inactive”. SMRYVTLKPNF: the amyloid nucleation score result is “inactive”. For CMGYRFC, the amyloid nucleation score result is “inactive”. To NVVWIYTIFRGVCFGYRRWA belongs “inactive”; to SSWMYGFCVSKSSWPRL, -0.272 ± 1.4. In the case of LLKIFNNEVKITITFCLLYV, the amyloid nucleation score entry was “inactive”.

Regarding MLFRLRSAYHTASDVDANDD, the amyloid nucleation score result is “inactive”. To HMKPSMLYITVCRWFKFY belongs “inactive”; to MFMVAIGAYEGCSGRRHREV, -0.238 ± 0.64. To AFQLVHSWSFVGGTRALAVT belongs “inactive”. To VGTMKNLERVRVCYD belongs “inactive”; to LDQTSRIVYVFTCSYWLDKV, “inactive”. For RVGSACNRNSLRKESCTPVQ, the amyloid nucleation score entry is “inactive”. To LDDRQSVCGTAYKVMTDIS belongs “inactive”; to PRIQKSWVGAM, “inactive”. To SWIVLYRMDS belongs “inactive”; to FFSISFS, “inactive”. To FWFFYNICRMLKSVT belongs “inactive”; to VRIRGWFAGHGNFWFSL, “inactive”; to VWWSYLQKSKILI, 0.624 ± 0.2. For AIVWPSYFIWFYSNESRKDR, the amyloid nucleation score result is “inactive”. To TFLNSNFFPIWLVVCASA belongs “inactive”.

Consider YLPAHIYMK, for which the amyloid nucleation score result is “inactive”. To WCQFSDLSVAFK belongs “inactive”. To FSRTSCVGDCYCGAYNRLSG belongs 2.02 ± 0.095. On to VVCLFRVRYRW, for which the amyloid nucleation score was 1.48 ± 0.12.

On to KFGSLVKTYFRDMFRSILCW, for which the amyloid nucleation score result was “inactive”.

With TNTPIMKCELHTRDFVKVIS, the amyloid nucleation score entry was “inactive”. On to MQTNCFRMAVYFAQVRLS, for which the amyloid nucleation score result is “inactive”. To NLTVGSTILIPC belongs “inactive”; to TYFKSGRNILAHIYMWLILG, “inactive”. To TVQFMRKAQRQFSGA belongs “inactive”; to LLGYASMASSFIYIQHNVLE, “inactive”; to NEHGEAGCAYEAKGAVGVKS, “inactive”. To DAHNRASLSYVPSYYVSFTA belongs “inactive”; to CVAKK, “inactive”.

Regarding ICDHVYVGNFLTQA, the amyloid nucleation score entry was “inactive”.

KWMGKNTKSG: the amyloid nucleation score entry is “inactive”. To CVAAV belongs “inactive”; to NTSGKCVKIDVRLNTVTS, “inactive”; to KPWIFMESRDM, “inactive”. To CNGLNRIVDLNWNMMSIMRS belongs “inactive”. To WCVASILRQFPLCYFITQNP belongs “inactive”.

The substance VCVSVRDTCGLCLLVYDNTV yielded an amyloid nucleation score of 2.11 ± 0.079. To NCSWGRRKETTDLSGSKCWT belongs 0.881 ± 0.23.

With ALGCPGSQNLYFGSGSPAWS, the amyloid nucleation score entry is “inactive”. Turning to YRCSRNVENYGPSKRGYYTE, the amyloid nucleation score result was “inactive”. On to FTEKGGLPC, for which the amyloid nucleation score entry was “inactive”. To GWNVWQGMNKNFGTYFSR belongs “inactive”. Take CYMADNVLVGFTFVGIQEMK: the amyloid nucleation score entry is “inactive”.

Regarding WIGDIIILWMRHSDLCILNC, the amyloid nucleation score result is “inactive”.

As to RGIKWWILDFWVDMHTCMFK, the amyloid nucleation score result is “inactive”. Take ILQKSDVSII: the amyloid nucleation score entry was “inactive”. To FWFFTSMLVSVCLMRASRCL belongs “inactive”; to PGLRVNYFRGESLDVYIVEE, 2.14 ± 0.071. To CLLVRTIMRVLYFWMES belongs “inactive”; to RTKMLAVRDVHSGYHSTTQC, “inactive”; to ELLKPCNVCYRWYNTHALLV, 0.724 ± 0.18. To SGIRDHLMRTKFDFVFKM belongs “inactive”.

For the substance NLYMGRPKRRVIGYLVACFA, the amyloid nucleation score result was “inactive”. For SEMELDLSFSPPYRGLPIIV, the amyloid nucleation score entry was “inactive”. Turning to IRSYAF, the amyloid nucleation score entry was “inactive”. To FWKWL belongs “inactive”. The substance TPVTGQQWNCFCTILHSE registered an amyloid nucleation score of 2.52 ± 0.08. To VYNALNNSAVLQL belongs “inactive”.

Turning to TSLLGLRKHFLPHLIYMRNS, the amyloid nucleation score entry was “inactive”. To TQMILWVM belongs “inactive”. To TCTSQMLVWYFFPFLINMSW belongs “inactive”; to DCMSHLLF, “inactive”. To NNRCNKFPGYTL belongs “inactive”; to ICYSNDSLYMLLESS, “inactive”. Regarding LHIGLNS, the amyloid nucleation score entry was “inactive”. To NCSELGSS belongs “inactive”; to RSLDRRSCAMHILRGHQLKT, “inactive”; to KAARTSQGNARCVYVKGVSN, “inactive”. To SCNFGANYNLKMIFIYVPWV belongs 1.75 ± 0.08; to SAKIL, 0.118 ± 0.23; to WHTDWRW, “inactive”. To SQTLYLGARVNRMRYVFSAC belongs “inactive”; to GSISMFNKG, “inactive”; to AKWSGFYYVLMYFFMLHLRY, “inactive”.

Regarding PNYPDLYHFLICSLCSSFVT, the amyloid nucleation score was determined as 1.84 ± 0.076.

For the substance RGFFSHWSFDVTHYVLVRTL, the amyloid nucleation score result was “inactive”. To SLGSNEKYWERRVSSHNWTT belongs “inactive”; to MICLLSSSCKRRCLMG, “inactive”.

MTPTMDENSFLDSSISQMLW: the amyloid nucleation score result is “inactive”.

As to VLKLRVKVNQVVVDYVLESG, the amyloid nucleation score result is “inactive”. To KDLCPFARPASRLHRVACME belongs “inactive”. To YDSRFTKLTCQSPINWHKEV belongs “inactive”; to SCSDW, “inactive”.
